From paper PMC7891125 (Cell, 2021) come the findings set out here.

Assay [1] concerns the target T1, SARS-CoV-2 spike on intact virus (SARS-CoV-2/human/AUS/VIC01/2020) (SARS-CoV-2, isolate human/AUS/VIC01/2020). In words: cell-based or functional assay.
The target of assay [2] is T1, SARS-CoV-2 spike on intact virus …. As to the kind of experiment: ELISA; whole virus ELISA: SARS-CoV-2 virus captured on plates coated with mouse anti-spike mAb31, serial dilutions of IgG or Fab, ALP anti-human IgG (Fab-specific); Kd = concentration at half-maximal binding by nonlinear regression. The conditions noted are these: one partner purified.
In assay [3] the target is T2, His-tagged SARS-CoV-2 RBD (Severe acute respiratory syndrome …, UniProt P0DTC2). In words: BLI. To be noted: both partners purified.
Assay [4] deals with His-tagged RBD for structural analysis (SARS-CoV-2 Wuhan-Hu-1 (MN908947), UniProt P0DTC2, treated with endoglycosidase H1; 'glycosylated RBD' was used for the complex with Fab S309 and Fab384). As to the kind of experiment: crystal structure. The conditions noted are these: both partners purified.
The target of assay [5] is T2, His-tagged SARS-CoV-2 RBD. As to the kind of experiment: BLI; competition assay, Octet RED96e, His-tagged RBD on Anti-HIS (HIS2) biosensors, saturating antibody 15 ug/ml then competing IgG 5 ug/ml; 10 mM HEPES pH 7.4, 150 mM NaCl. The conditions noted are these: both partners purified. (In BLI a coated tip is dipped into the sample, and binding shifts an interference pattern.)

B1: Fab 150 (Fab, V domains shown)
VH: QVQLVESGGGLIQPGGSLRLSCAASGVTVSSNYMSWVRQAPGKGLEWVSIIYSGGTTYYADSVKGRFTISRDSSMNTLYLQMNSLRAEDTAVYYCARDLMVYGIDVWGQGTTVTVSS
VL: EIVMTQSPSSLSASVGDRVTITCRASQGISSYLAWYQQKPGKAPKLLIYAASTLQSGVPSRFSGSGSGTDFTLTISSLQPEDFATYYCQQLDSYPPGYTFGQGTKVDIK
Broadly, the Kd is a measure of binding affinity in units of concentration. Read a high Kd as weaker binding. For B1, the “Table S7: Neutralization IC50 (nM), FRNT of authentic SARS-CoV-2, Fab” value (shortened to “Table S7: Neutralization IC50 (nM), FRNT … Fab”) in assay [1] was determined as 0.61 nM. Besides, the Kd in assay [2] is 0.75 nM.

B2: mAb 150 (IgG) (antibody, V domains shown)
VH: B1 VH
VL: B1 VL
notes: IgG1
B2: the Kd in assay [2] is 0.24 nM.

B3: Fab 88 (Fab, V domains shown)
VH: QLQLQESGPGLVKPSQTLSLTCTVSGGSISSGSYNWTWIRQPAGKGLEWIGRIYNSGSTNYNPSLKSRVTISVDTSKNQLSLKVRSVTAADTAVYYCARHCSGGTCYPKYYYGMDVWGQGTTVTVSS
VL: QSALTQPPSVSEAPRQRVTISCSGSSSNIGNNAVNWYQQFPGKAPKLLIYYDDLLPSGVSDRFSGSKSGTSASLAISGVQSEDEADYYCAAWDDSLNVVVFGGGTKLTVL
notes: also called 88 Fab
As to B3, the “Table S7: Neutralization IC50 (nM), FRNT … Fab” value in assay [1] was 6.95 nM. This molecule yielded a Kd in assay [2] of 1.21 nM.

B4: mAb 88 (IgG) (antibody, V domains shown)
VH: B3 VH
VL: B3 VL
notes: IgG1
The molecule B4 showed a Kd in assay [2] of 0.25 nM.

B5: Fab 40 (Fab, V domains shown)
VH: QVQLVESGGGLVQPGGSLRLSCAVSGFTVSRNYMSWVRQAPGKGLEWVSLIYSGGSTFYADSVKGRFTISRDNSKNTLYLQMNSLRAEDTAVYYCARDLFHRSGYHDYWGQGTLVTVSS
VL: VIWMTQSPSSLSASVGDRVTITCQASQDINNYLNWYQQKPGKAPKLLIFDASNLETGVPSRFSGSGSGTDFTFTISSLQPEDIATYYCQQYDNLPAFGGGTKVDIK
notes: also called 40 Fab
For B5, the “Table S7: Neutralization IC50 (nM), FRNT … Fab” value in assay [1] was determined as 45.7 nM. Besides, the Kd in assay [2] was 1.23 nM.

B6: mAb 40 (IgG) (antibody, V domains shown)
VH: B5 VH
VL: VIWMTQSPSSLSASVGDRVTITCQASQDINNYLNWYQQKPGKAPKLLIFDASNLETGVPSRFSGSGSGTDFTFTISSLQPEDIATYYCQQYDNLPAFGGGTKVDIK
notes: IgG1
Take B6: the Kd in assay [2] was 0.33 nM.

B7: Fab 158 (Fab, V domains shown)
VH: EVQLLESGGDLIQPGGSLRLSCAASGVTVSSNYMSWVRQAPGKGLEWVSIIYPGGSTFYADSVKGRFTISRDNSKNTLYLQMHSLRAEDTAVYYCARDLGSGDMDVWGKGTTVTVSS
VL: DIVMTQSPSFLSASVGDRVTITCRASQGISSYLAWYQQKPGKAPKLLIQAASTLQSGVPSRFSGSGSGTEFTLTISSLQPEDFATYYCQQLNSYRYTFGQGTKVEIK
Broadly, the koff is a measure of how fast the partners let go of each other. A lower koff goes with a long-lived complex. The kon is a measure of how fast the partners come together. Read a high kon as faster complex formation. In the case of B7, the “Table S7: Neutralization IC50 (nM), FRNT … Fab” value in assay [1] was 4.12 nM. In addition, in assay [3], the Kd is 0.7 nM, the koff amounted to 8.4e-05 s⁻¹ and the kon is 120000 M⁻¹ s⁻¹. The Kd in assay [2] stood at 3.73 nM.

B8: mAb 158 (IgG) (antibody, V domains shown)
VH: B7 VH
VL: B7 VL
notes: IgG1
In the case of B8, binding in assay [2] was characterised by a dissociation constant (Kd) of 0.5 nM.

B9: Strep-tagged Fab 158 (Fab, V domains shown)
VH: B7 VH
VL: B7 VL
notes: also called Fab58 (as printed in the crystallization paragraph); source: HEK293T, transient transfection, purified (Strep-Tactin)
Take B9: in assay [4], the binding result is on record as “binds”.

B10: chimeric mAb 253H165L (IgG) (antibody, V domains shown)
VH: not shown
VL: DIVMTQSPGTLSLSPGERATLSCRASQSVRSSYLAWYQQKPGQAPRLLIYGASRRGTGIPDRFSGSGSGTDFTLTISRLEPEDFAVYYCQQYGSSPWTFGQGTKVEIK
Take B10: the “Table S7: Neutralization IC50 (nM), FRNT of authentic SARS-CoV-2” value in assay [1] was 0.03 nM. This molecule also yielded a Kd in assay [2] of 0.09 nM.

B11: chimeric Fab 253H165L (Fab, V domains shown)
VH: not shown
VL: B10 VL
As for B11, the “Table S7: Neutralization IC50 (nM), FRNT … Fab” value in assay [1] came to 5.22 nM. The same molecule yielded a Kd in assay [2] of 5.02 nM.

B12: mAb 384 (IgG) (antibody, V domains shown)
VH: EVQLVESGGGLVKPGESLRLSCAASGFTFSDYYMTWIRQAPGKGLEWVSYIRSSGHTIYYADSVKGRFTISRDNAKNSLYLQMNSLRVEDTAVYYCARGGVLRFLEWPLNAFDIWGQGTMVTVSS
VL: DIQLTQSPSSLSASVGDRVTITCRASQGISNYLAWYQQKPGKVPKLLIYAASTLQSGVPSRFSGSGSGTDFTLTISSLQPEDVATYYCQKYNNALGTFGQGTKVEIK
notes: IgG1
For the molecule B12, in assay [5], the binding result was “binds”.

B13: Fab384 (Fab, V domains shown)
VH: B12 VH
VL: B12 VL
In the case of B13, the binding result in assay [4] is given as “binds”.

B14: mAb 75 (IgG) (antibody, V domains shown)
VH: QVQLVESGGGVVQPGRSLRLSCAASGFTFNNYPLHWVRQAPGKGPEWVAVISQDGGNKYYVDSVKGRFTISRDNSKNTLYLQMNNLRAEDTALYYCARDVVVVVAARNHYYNGMDVWGQGTTVTVSS
VL: DIQLTQSPSSVSASVGDRVTITCRASQGISSWLAWYQQKPGKAPKLLIYAVSSLQSGVPSRFSGSGSGTDFTLTISSLQPEDFATYYCQQAKSFPFTFGPGTKVEIK
notes: IgG1
Regarding B14, in assay [5], the binding result is “binds”.

B15: Fab75 (Fab, V domains shown)
VH: B14 VH
VL: B14 VL
notes: also called mAb 75
Regarding B15, the binding result in assay [4] was “binds”.

B16: Fab 45 (Fab, V domains shown)
VH: QVQLVESGGGVVQPGRSLRLSCAASGFTFSTYAMHWVRQAPGKGLEWVAVLSYDGSNKYYADSVKGRFTISRDNSKNTLYLQMNSLRAEDTAVYYCAKGGSYAYYYYMDVWGKGTTVTVSS
VL: not shown
In assay [3], B16 showed a Kd of 5.9 nM, a koff of 0.00046 s⁻¹ and a kon of 78000 M⁻¹ s⁻¹.

B17: mAb 159 (IgG) (antibody, V domains shown)
VH: EVQLVESGGGVVQPGRSLRLSCAASGFTFSSYGMHWVRQAPGKGLEWVALISYDGGNRYYADSVKGRFTISRDNSKNTLYLQMNRLRAEDTAMYYCAKDRDDGWDWYYFMDVWGKGTTVTVSS
VL: DIQLTQSPGTLSLSPGERATLSCRASQSISGNYLAWYQHKPGQAPRLLIYGASTRATGIPDRFSGSGSGTDFTLTISRLEPEDFAVYYCQQYGSSYTFGQGTKVEIK
notes: IgG1; also called 159 (anti-spike); IgG159
Molecule B17 yielded a Kd in assay [2] of 0.19 nM.

B18: Fab 159 (Fab, V domains shown)
VH: B17 VH
VL: B17 VL
notes: also called 159 Fab
Take B18: the Kd in assay [2] stood at 0.29 nM.

B19: Fab 269 (Fab, V domains shown)
VH: QVQLVESGGGLIQPGGSLRLSCAASGLTVNRNYMSWIRQAPGKGLEWVSVIYSGGSTFYADSVKGRFTISRDNSKNTLSLQMNSLRAEDTAIYYCARDFYEGSFDIWGQGTMVTVSS
VL: AIQLTQSPSFLSASIGDRVTITCRASQGISSYLAWYQQKPGKAPKLLIYAASTLQSGVPSRFSGSGSGTEFTLTISSLQPEDFASYYCQQLNSYPAPVFGPGTKVDIK
In assay [3], B19 gave a Kd of 2.2 nM, a koff of 0.00039 s⁻¹ and an on-rate constant (kon) of 180000 M⁻¹ s⁻¹.

B20: Fab 316 (Fab, V domains shown)
VH: not shown
VL: QAVLTQPPSASGSPGQSVTISCTGTSSDVGGYNYVSWYQQHPGKAPKLMIYEVSKRPSGVPDRFSGSKSGNTASLTVSGLQAEDEADYYCSSYAGSNHWVFGGGTKLTVL
In the case of B20, the “Table S7: Neutralization IC50 (nM), FRNT … Fab” value in assay [1] came to 27.6 nM. In assay [3], the koff was found to be 0.00071 s⁻¹ and the kon worked out at 350000 M⁻¹ s⁻¹. The same molecule returned a Kd in assay [2] of 8.76 nM.

B21: mAb 316 (IgG) (antibody, V domains shown)
VH: not shown
VL: B20 VL
notes: IgG1
In assay [2], B21 yielded a dissociation constant (Kd) of 0.13 nM.
